In the Immune Epitope Database (IEDB):

Legend:
[1] = target: HLA-A*01:01; assay: IEDB peptide-MHC binding, purified MHC/direct/fluorescence; filed as Kd, often an IC50 or EC50 that approximates it; ≥ and ≤ were set here for values at or beyond the usual limits of such assays
[2] = target: HLA-A*11:01; assay: as above
[3] = target: HLA-A*24:03; assay: as above; conditions: source organism: Camelpox virus M-96
[4] = target: HLA-A*26:01; assay: as above
[5] = target: HLA-A*26:03; assay: as above; conditions: source organism: Variola virus
[6] = target: HLA-A*31:01; assay: as above
[7] = target: HLA-A*69:01; assay: as above
[8] = target: HLA-B*08:02; assay: as above; conditions: source organism: Variola virus
[9] = target: HLA-B*15:01; assay: as above
[10] = target: HLA-B*58:01; assay: as above
[11] = target: HLA-A*02:01; assay: IEDB peptide-MHC binding, purified MHC/competitive/fluorescence; filed as Kd, often an IC50 or EC50 that approximates it; ≥ and ≤ were set here for values at or beyond the usual limits of such assays; conditions: source organism: Variola virus
[12] = target: HLA-A*26:02; assay: as above; conditions: source organism: Variola virus
[13] = target: HLA-A*68:02; assay: as above; conditions: source organism: Variola virus
[14] = target: HLA-B*07:02; assay: as above; conditions: source organism: Variola virus
[15] = target: HLA-B*08:01; assay: as above; conditions: source organism: Variola virus
[16] = target: HLA-B*15:17; assay: as above; conditions: source organism: Variola virus
[17] = target: HLA-B*18:01; assay: as above; conditions: source organism: Variola virus
[18] = target: HLA-B*57:01; assay: as above; conditions: source organism: Variola virus
[19] = target: HLA-C*06:02; assay: IEDB peptide-MHC binding, purified MHC/direct/fluorescence; filed as Kd, often an IC50 or EC50 that approximates it; ≥ and ≤ were set here for values at or beyond the usual limits of such assays
[20] = target: HLA-C*07:02; assay: as above
[21] = target: HLA-A*02:01; assay: as above
[22] = target: HLA-A*03:01; assay: as above
[23] = target: HLA-A*30:01; assay: as above; conditions: source organism: Vibrio cholerae
[24] = target: HLA-B*07:02; assay: as above; conditions: source organism: Vibrio cholerae
[25] = target: HLA-B*08:01; assay: as above; conditions: source organism: Vibrio cholerae
[26] = target: HLA-B*27:05; assay: as above
[27] = target: HLA-B*40:01; assay: as above
[28] = target: HLA-B*44:02; assay: as above; conditions: source organism: Vibrio cholerae
[29] = target: HLA-B*73:01; assay: IEDB peptide-MHC binding, purified MHC/competitive/fluorescence; filed as Kd, often an IC50 or EC50 that approximates it; ≥ and ≤ were set here for values at or beyond the usual limits of such assays
[30] = target: HLA-B*15:09; assay: IEDB peptide-MHC binding, purified MHC/direct/fluorescence; filed as Kd, often an IC50 or EC50 that approximates it; ≥ and ≤ were set here for values at or beyond the usual limits of such assays; conditions: source organism: Mycobacterium tuberculosis str. Haarlem
[31] = target: HLA-B*15:17; assay: as above; conditions: source organism: Mycobacterium tuberculosis
[32] = target: HLA-B*46:01; assay: as above; conditions: source organism: Mycobacterium tuberculosis
[33] = target: HLA-B*48:01; assay: as above; conditions: source organism: Mycobacterium tuberculosis
[34] = target: HLA-B*51:01; assay: as above; conditions: source organism: Mycobacterium tuberculosis
[35] = target: HLA-B*57:01; assay: as above; conditions: source organism: Mycobacterium tuberculosis
[36] = target: HLA-A*32:15; assay: IEDB peptide-MHC binding, purified MHC/competitive/fluorescence; filed as Kd, often an IC50 or EC50 that approximates it; ≥ and ≤ were set here for values at or beyond the usual limits of such assays; conditions: source organism: Mycobacterium tuberculosis C
[37] = target: HLA-B*15:01; assay: as above; conditions: source organism: Mycobacterium tuberculosis C
[38] = target: HLA-B*15:42; assay: as above; conditions: source organism: Mycobacterium tuberculosis C
[39] = target: HLA-B*45:06; assay: as above; conditions: source organism: Mycobacterium tuberculosis C
[40] = target: HLA-B*83:01; assay: as above; conditions: source organism: Mycobacterium tuberculosis C
[41] = target: HLA-C*04:01; assay: IEDB peptide-MHC binding, purified MHC/direct/fluorescence; filed as Kd, often an IC50 or EC50 that approximates it; ≥ and ≤ were set here for values at or beyond the usual limits of such assays; conditions: source organism: Homo sapiens
[42] = target: HLA-B*27:05; assay: IEDB peptide-MHC binding, purified MHC/competitive/fluorescence; filed as Kd, often an IC50 or EC50 that approximates it; ≥ and ≤ were set here for values at or beyond the usual limits of such assays; conditions: source organism: Encephalitozoon cuniculi GB-M1
[43] = target: HLA-B*48:01; assay: as above; conditions: source organism: Encephalitozoon cuniculi GB-M1
[44] = source organism: Camelpox virus M-96
[45] = source organism: Vibrio vulnificus CMCP6
[46] = source organism: Vibrio cholerae
[47] = source organism: Mycobacterium tuberculosis
[48] = source organism: Encephalitozoon cuniculi GB-M1

With EYKKFIATF the Kd [1, 44] was ≥ 20 µM, the Kd [2, 44] was ≥ 20 µM and the Kd [3] was 32 nM. For the same sequence, the Kd ([4]; source organism: Variola virus) was ≥ 20 µM, the Kd [5] was ≥ 20 µM and the Kd [6, 44] was ≥ 20 µM. For the same sequence, the Kd [7, 44] was ≥ 20 µM, the Kd [8] was ≥ 20 µM and the Kd [9, 44] was ≥ 20 µM. The Kd ([10]; source organism: Variola virus) was 0.256 µM, the Kd [11] was ≥ 20 µM and the Kd [12] was 818 nM. The Kd [13] was ≥ 20 µM, the Kd [14] was 3000 nM and the Kd [15] was ≥ 20 µM. The Kd [16] was 865 nM, the Kd [17] was 58.3 nM and the Kd [18] was 4.85 µM.

Sequence FMIVNNFPV has a Kd [19, 45] of 633 nM and a Kd [20, 45] of 1010 nM.

With GKFFAQAFL the Kd [1, 46] was ≥ 20 µM, the Kd [21, 46] was ≥ 20 µM and the Kd [22, 46] was ≥ 20 µM. For the same sequence, the Kd [2, 46] was ≥ 20 µM, the Kd [4, 46] was ≥ 20 µM and the Kd [23] was 753 nM. For the same sequence, the Kd [6, 46] was ≥ 20 µM, the Kd [7, 46] was ≥ 20 µM and the Kd [24] was ≥ 20 µM. For the same sequence, the Kd [25] was ≥ 20 µM, the Kd [9, 46] was ≥ 20 µM and the Kd [26, 46] was 1300 nM. The Kd [27, 46] was ≥ 20 µM, the Kd [28] was ≥ 20 µM and the Kd [10, 46] was ≥ 20 µM. For the same sequence, the Kd [29, 46] was ≥ 20 µM.

For LPAEVRAAF, the Kd [1, 47] was 4.61 µM, the Kd [21, 47] was ≥ 20 µM and the Kd [22, 47] was ≥ 20 µM. For the same sequence, the Kd [2, 47] was ≥ 20 µM, the Kd ([4]; source organism: Mycobacterium tuberculosis str. Haarlem) was 0.889 µM and the Kd [6, 47] was ≥ 20 µM. The Kd [7, 47] was 1.31 µM, the Kd [30] was ≥ 20 µM and the Kd [31] was ≥ 20 µM. The Kd [26, 47] was ≥ 20000 nM, the Kd [27, 47] was ≥ 20 µM and the Kd [32] was ≥ 20 µM. For the same sequence, the Kd [33] was ≥ 20 µM, the Kd [34] was ≥ 20 µM and the Kd [35] was ≥ 20 µM. For the same sequence, the Kd [10, 47] was ≥ 20 µM, the Kd [36] was 757 nM and the Kd [37] was ≥ 20 µM. For the same sequence, the Kd [38] was ≥ 5 µM, the Kd [39] was ≥ 5 µM and the Kd [40] was 67.6 nM.

With RKKLRPRWL the Kd ([19]; source organism: dengue virus type 1) was ≥ 20000 nM.

In the case of SDFFDRLQV, the Kd ([29]; source organism: Cryptosporidium parvum Iowa II) is reported as ≥ 20 µM.

SRDYYRHKV gave a Kd ([29]; source organism: Clostridium novyi NT) of 3.62 µM.

For WYDALCVLL, the Kd [41] was 35 nM.

With YFYYNAFHW the Kd [41] was ≥ 20000 nM and the Kd ([20]; source organism: Homo sapiens) was 2060 nM.

For YRFNLRRKM, the Kd [19, 48] was 10 nM, the Kd [42] was 1.2 nM and the Kd [43] was ≥ 20 µM. For the same sequence, the Kd [29, 48] was 0.0851 µM.

With YYNAFHWAI the Kd ([20]; source organism: Homo sapiens) was 715 nM.
